Laboratory results from patent publication US20240368249A1 (INTERVET, published 2024).

Columns and labels:
canine IL-31Rα (canine) [1] = experiment: ELISA, plate coated with cIL-31Rα at 1 µg/mL, detection with HRP anti-dog IgG Fc, OD450/540
canine IL-31Rα (canine) [2] = experiment: ELISA, plate coated with cIL-31Rα at 1 µg/mL, detection with HRP anti-dog IgG Fc, OD450/540nm
canine IL-13 = target: T1, canine IL-13 (canine, UniProt Q9N0W9 19-131, limits assumed, biotin-labeled in the OCTET assay); experiment: BLI (OCTET HTX), biotin-cIL-13 on SA biosensors
T1 construct: also called cIL-13; canine Interleukin-13
T1 sequence (looked up): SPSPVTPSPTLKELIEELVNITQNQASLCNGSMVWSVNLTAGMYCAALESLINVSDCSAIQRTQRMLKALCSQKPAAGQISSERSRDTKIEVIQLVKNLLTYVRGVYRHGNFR
Description: The binding constants for the cFc fusion proteins provided in Tables 3 and 4 below, were determined using OCTET® HTX. All kinetics measurements were performed by OCTET® HTX using SA® biosensors and DATA ACQUISITION® 12.0 software. 10 μg/mL of biotin-labeled antigen, either canine IL-4 (cIL-4) or canine IL-13 (cIL-13) were loaded onto the SA® biosensors for 120 seconds. Next, the biosensors were placed into 1×pH 7.0 TBS/Casein buffer for 60 seconds for the blocking phase. For the association phase, antigen loaded biosensors were placed into 2-fold serial dilutions from 1 μM down to 15.6 nM of the wild-type, the bispecific, or the FcRn-mutant receptor Fc-fusions that recognized the cIL-4 or cIL-13 antigen in 1×pH 7.0 TBS/Casein buffer for 30 seconds. The last well was buffer alone and that sensor was used for reference sensor subtraction. Finally, the biosensors were placed into 1×pH 7.0 TBS/Casein buffer for 120 seconds for the dissociation phase. The results were then analyzed using Data Analysis 12.0 software and the curves were fitted using a 1:1 binding model.

Binder | EC50 (canine IL-31Rα (canine) [1]) | further results
Caninized 28F12 H1k3 (antibody, V domains shown) VH: EVQLVESGGDLVKPGGSLRLSCVASGFTFSDYYMAWVRQAPGKGLQWVATISYDGSSTYYRDSVRGRFTISRDNAKNTLYLQMNSLRAEDTAMYYCAKGPLTDWAPNWFAYWGQGTLVTVSS VL: DIVMTQSPASLSLSQEEKVTITCQTSEDIYSGLAWYQQKPGQAPKLLIYGASRLEDGVPSRFSGSGSGTDFSFTISSLEPEDVAVYFCQQGLKYPNTFGAGTKVELKR | 1.74 ng/mL | –
Caninized 28F12 H2k3 (antibody, V domains shown) VH: EVQLVESGGDLVKPGGSLRLSCAASGFTFSDYYMAWVRQAPGKGLQWVATISYDGSSTYYRDSVRGRFTISRDNAKNTLYLQMNSLRAEDTAMYYCARGPLTDWAPNWFAYWGQGTLVTVSS VL: DIVMTQSPASLSLSQEEKVTITCQTSEDIYSGLAWYQQKPGQAPKLLIYGASRLEDGVPSRFSGSGSGTDFSFTISSLEPEDVAVYFCQQGLKYPNTFGAGTKVELKR | 1.74 ng/mL | –
Caninized 28F12 H2k2 (antibody, V domains shown) VH: EVQLVESGGDLVKPGGSLRLSCAASGFTFSDYYMAWVRQAPGKGLQWVATISYDGSSTYYRDSVRGRFTISRDNAKNTLYLQMNSLRAEDTAMYYCARGPLTDWAPNWFAYWGQGTLVTVSS VL: EIVMTQSPASLSLSQEEKVTITCQTSEDIYSGLAWYQQKPGQAPKLLIYGASRLEDGVPSRFSGSGSGTDFSFTISSLEPEDVAVYYCQQGLKYPNTFGAGTKVELKR | 1.74 ng/mL | –
Chimeric rat/canine 10A12 (antibody, V domains shown) VH: EVQLVESGGGLVKPGRSMKLSCAASGFTFSNYYMAWVRQAPTKGLEWVASISTGGGNTYYRDSVKGRFTISRDNAKRTLYLQMDSLRSEDTATYYCGRHGTLYFDYWGQGVMVTVSS VL: QFTLTQPKSVSGSLRSTITIPCERSSGDIGDSYVSWYQQHLGRPPINVIYVDDQRPSEVSDRFSGSIDSSSNSASLTITDLQMDDEADYFCQSYDSNIDGPVFGGGTKLTVLG | – | EC50 (canine IL-31Rα (canine) [2]): 0.518 ng/mL
cIL-13Rα1-cIgGB-Fc-YTE CH2 Numbering (L18Y/A20T/T22E) (Fc fusion, Homodimer; also called cIL-13Rα1-cFc-YTE) GGVAAPTETQPPVTNLSVSVENLCTVIWTWDPPEGASPNCTLRYFSHFDNKQDKKIAPETHRSKEVPLNERICLQVGSQCSTNESDNPSILVEKCTPPPEGDPESAVTELQCVWHNLSYMKCTWLPGRNTSPDTNYTLYYWHSSLGKILQCEDIYREGQHIGCSFALTNLKDSSFEQHSVQIVVKDNAGKIRPSFNIVPLTSHVKPDPPHIKRLFFQNGNLYVQWKNPQNFYSRCLSYQVEVNNSQTETNDIFYVEEAKCQNSEFEGNLEGTICFMVPGVLPDTLNTVRIRVRTNKLCYEDDKLWSNWSQAMSIGENTDPTPKRENGRVPRPPDCPKCPAPEMLGGPSVFIFPPKPKDTLYITREPEVTCVVVDLDPEDPEVQISWFVDGKQMQTAKTQPREEQFNGTYRVVSVLPIGHQDWLKGKQFTCKVNNKALPSPIERTISKARGQAHQPSVYVLPPSREELSKNTVSLTCLIKDFFPPDIDVEWQSNGQQEPESKYRTTPPQLDEDGSYFLYSKLSVDKSRWQRGDTFICAVMHEALHNHYTQESLSHSPGK | – | fold decrease in affinity against the unmodified cIL-13Rα1-cFc (canine IL-13): ~4 fold decrease
Caninized 44E2 H5k1 (antibody, V domains shown) VH: ELTLQESGPGLVKPSQTLSLTCTVSGFSLTSNGVSWIRQRPGRGLEWMGAISSGGSTYYNSVLKSRISITADTAKNQFSLQLSSMTTEDTAVYYCARRLSGYNYVPFAYWGQGTLVTVSS VL: EIVMTQSPASLSLSQEEKVTITCKASQNIYKHLAWYQQKPGQAPKLLIYNANSLQTGVPSRFSGSGSGTDFSFTISSLEPEDVAVYYCQQYYSGDTFGAGTKVELKR | 1.35 ng/mL | –
Caninized 44E2 H5k2 (antibody, V domains shown) VH: ELTLQESGPGLVKPSQTLSLTCTVSGFSLTSNGVSWIRQRPGRGLEWMGAISSGGSTYYNSVLKSRISITADTAKNQFSLQLSSMTTEDTAVYYCARRLSGYNYVPFAYWGQGTLVTVSS VL: EIVMTQSPASLSLSQEEKVTITCKASQNIYKHLAWYQQKPGQAPKLLIYNANSLQTGIPSRFSGSGSGTDFSFTISSLEPEDVAVYFCQQYYSGDTFGAGTKVELKR | 3.97 ng/mL | –
cIL-13Rα2-cIgGB-Fc-YD CH2 Numbering (L18Y/T22D) (Fc fusion, Homodimer; also called cIL-13Rα2-cFc-YD) SMLSNAEIKVNPPQDFEIVDPGYLGYLSLQWQPPLFPDNFKECTIEYELKYRNIDSENWKTIITKNLHYKDGFDLNKGIEAKINTLLPAQCTNGSEVRSSWAETTYWTSPQGNRETKIQDMDCVYYNWQYLVCSWKPGMGVHFDTNYQLFYWYEGLDHSAECTDYIKVNGKNMGCRFPYLESSDYKDFYICVNGSSESQPIRPSYFIFQLQNIVKPMPPDYLSLTVKNSEEINLKWNMPKGPIPAKCFIYEIEFTEDGTTWVTTTVENEIQITRTSNESQKLCFLVRSKVNIYCSDDGIWSEWSDEQCWKGDIWKETPKRENGRVPRPPDCPKCPAPEMLGGPSVFIFPPKPKDTLYIARDPEVTCVVVDLDPEDPEVQISWFVDGKQMQTAKTQPREEQFNGTYRVVSVLPIGHQDWLKGKQFTCKVNNKALPSPIERTISKARGQAHQPSVYVLPPSREELSKNTVSLTCLIKDFFPPDIDVEWQSNGQQEPESKYRTTPPQLDEDGSYFLYSKLSVDKSRWQRGDTFICAVMHEALHNHYTQESLSHSPGK | – | factor of decrease of KD against the unmodified cIL-13Rα2-cFc (canine IL-13): ~2 fold lower KD
cIL-13Rα2-cIgGB-Fc-YTE CH2 Numbering (L18Y/A20T/T22E) (Fc fusion, Homodimer; also called cIL-13Rα2-cFc-YTE) SMLSNAEIKVNPPQDFEIVDPGYLGYLSLQWQPPLFPDNFKECTIEYELKYRNIDSENWKTIITKNLHYKDGFDLNKGIEAKINTLLPAQCTNGSEVRSSWAETTYWTSPQGNRETKIQDMDCVYYNWQYLVCSWKPGMGVHFDTNYQLFYWYEGLDHSAECTDYIKVNGKNMGCRFPYLESSDYKDFYICVNGSSESQPIRPSYFIFQLQNIVKPMPPDYLSLTVKNSEEINLKWNMPKGPIPAKCFIYEIEFTEDGTTWVTTTVENEIQITRTSNESQKLCFLVRSKVNIYCSDDGIWSEWSDEQCWKGDIWKETPKRENGRVPRPPDCPKCPAPEMLGGPSVFIFPPKPKDTLYITREPEVTCVVVDLDPEDPEVQISWFVDGKQMQTAKTQPREEQFNGTYRVVSVLPIGHQDWLKGKQFTCKVNNKALPSPIERTISKARGQAHQPSVYVLPPSREELSKNTVSLTCLIKDFFPPDIDVEWQSNGQQEPESKYRTTPPQLDEDGSYFLYSKLSVDKSRWQRGDTFICAVMHEALHNHYTQESLSHSPGK | – | factor of decrease of KD against the unmodified cIL-13Rα2-cFc (canine IL-13): ~2 fold lower KD
Chimeric rat/canine 44E2 (antibody, V domains shown) VH: QVQLKESGPGLVQPSQTLSLTCTVSGFSLTSNGVSWVRQPPGKGLEWIAAISSGGSTYYNSVLKSRLSISRDTSKSQVFLKMNSLQTEDTAIYFCTRRLSGYNYVPFAYWGQGTLVTVSS VL: DIQMTQSPSLLSASVGDRVTLNCKASQNIYKHLAWCQQKLGEPPNLLISNANSLQTGIPSRFSGSGSGTDFTLTISSLQPEDVATYFCQQYYSGDTFGAGTKLELKR | 1.37 ng/mL | –
Caninized 10A12 H1L5 (antibody, V domains shown) VH: EVQLVESGGDLVKPGGSLRLSCVASGFTFSNYYMAWVRQAPGKGLQWVASISTGGGNTYYRDSVKGRFTISRDNAKNTLYLQMNSLRAEDTAMYYCAKHGTLYFDYWGQGTLVTVSS VL: QPVLTQPPSLSASLGTTARLTCERSSGDIGDSYVSWYQQKPGSPPRDLLYVDDQRPSGVSKSFSGSKDTSANAGLLLISGLQPEDEADYYCQSYDSNIDGPVFGGGTHLTVLG | – | EC50 (canine IL-31Rα (canine) [2]): 13.5 ng/mL
Caninized 10A12 H2L6 (antibody, V domains shown) VH: EVQLVESGGDLVKPGGSLRLSCAASGFTFSNYYMAWVRQAPGKGLQWVASISTGGGNTYYRDSVKGRFTISRDNAKNTLYLQMNSLRAEDTAMYYCARHGTLYFDYWGQGTLVTVSS VL: QPVLTQPPSLSASLGTTARLTCERSSGDIGDSYVSWYQQKPGSPPRDVIYVDDQRPSEVSKSFSGSKDTSANAGLLLISGLQPEDEADYFCQSYDSNIDGPVFGGGTHLTVLG | – | EC50 (canine IL-31Rα (canine) [2]): 0.34 ng/mL
Chimeric rat/canine 28F12 (antibody, V domains shown) VH: EVQLVESDGGLAQPGRSLKLSCAASGFTFSDYYMAWVRQAPTKGLEWVATISYDGSSTYYRDSVRGRFTISRDNAKSTLYLQMDSLRSEDTATYYCARGPLTDWAPNWFAYWGQGTLVTVSS VL: DIQMTQSPASLSASLGETVTIQCQTSEDIYSGLAWYQQKPGKSPQFLIYGASRLEDGVPSRFSGSGSGTQYSLKISSMQTEDEGVYFCQQGLKYPNTFGAGTKLELKR | 1.66 ng/mL | EC50 (read off the curve) (canine IL-31Rα (canine) [1]): 1 ng/mL
